Experimental findings from paper PMC8183676 (Molecular cell, 2020) are described below.

One data set deals with T1, TRIM14^CC-PSpry (human, UniProt Q14142 59-442).
T1 sequence (looked up): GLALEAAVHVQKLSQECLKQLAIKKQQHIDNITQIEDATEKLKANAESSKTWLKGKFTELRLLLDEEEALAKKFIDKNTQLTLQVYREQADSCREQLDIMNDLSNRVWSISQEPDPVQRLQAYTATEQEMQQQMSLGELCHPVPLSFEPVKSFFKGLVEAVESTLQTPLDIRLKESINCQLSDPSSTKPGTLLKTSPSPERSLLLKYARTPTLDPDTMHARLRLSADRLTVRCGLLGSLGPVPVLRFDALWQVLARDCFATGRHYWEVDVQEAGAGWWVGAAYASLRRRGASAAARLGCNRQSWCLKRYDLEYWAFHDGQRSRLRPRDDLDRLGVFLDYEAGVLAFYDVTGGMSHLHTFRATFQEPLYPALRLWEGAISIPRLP
The data set is described as follows: pull-down.

A further data set addresses T2, GST-MDA5ΔN (human, UniProt Q9BYX4 287-1025).
T2 sequence (looked up): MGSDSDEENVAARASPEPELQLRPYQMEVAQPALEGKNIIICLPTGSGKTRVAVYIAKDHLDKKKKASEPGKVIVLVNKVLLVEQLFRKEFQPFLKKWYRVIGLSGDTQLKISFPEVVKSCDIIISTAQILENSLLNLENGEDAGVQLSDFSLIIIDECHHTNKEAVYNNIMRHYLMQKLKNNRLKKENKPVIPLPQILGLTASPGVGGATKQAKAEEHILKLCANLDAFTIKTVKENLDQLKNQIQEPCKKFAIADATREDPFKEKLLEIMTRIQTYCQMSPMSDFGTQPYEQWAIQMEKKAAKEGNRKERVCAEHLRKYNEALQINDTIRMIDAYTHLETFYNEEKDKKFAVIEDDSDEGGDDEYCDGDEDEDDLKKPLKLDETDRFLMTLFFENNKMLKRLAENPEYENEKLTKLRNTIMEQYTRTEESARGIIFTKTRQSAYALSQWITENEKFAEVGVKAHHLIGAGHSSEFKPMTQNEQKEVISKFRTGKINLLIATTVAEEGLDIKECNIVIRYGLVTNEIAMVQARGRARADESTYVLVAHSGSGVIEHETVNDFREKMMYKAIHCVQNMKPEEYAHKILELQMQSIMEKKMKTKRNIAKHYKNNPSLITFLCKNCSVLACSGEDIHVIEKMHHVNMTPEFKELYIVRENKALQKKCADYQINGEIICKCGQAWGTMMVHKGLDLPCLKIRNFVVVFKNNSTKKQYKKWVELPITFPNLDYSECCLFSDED
In words: native gel or EMSA. In general terms: A gel shift assay detects complexes by their altered migration in electrophoresis.

The data set “SEC-MALS” deals with the molecule itself. The data set is described as follows: SEC-MALS. (Size exclusion chromatography separates by hydrodynamic size, large species first.)
The target of the next data set is T3, MDA5ΔN (human, UniProt Q9BYX4 287-1025).
T3 sequence (looked up): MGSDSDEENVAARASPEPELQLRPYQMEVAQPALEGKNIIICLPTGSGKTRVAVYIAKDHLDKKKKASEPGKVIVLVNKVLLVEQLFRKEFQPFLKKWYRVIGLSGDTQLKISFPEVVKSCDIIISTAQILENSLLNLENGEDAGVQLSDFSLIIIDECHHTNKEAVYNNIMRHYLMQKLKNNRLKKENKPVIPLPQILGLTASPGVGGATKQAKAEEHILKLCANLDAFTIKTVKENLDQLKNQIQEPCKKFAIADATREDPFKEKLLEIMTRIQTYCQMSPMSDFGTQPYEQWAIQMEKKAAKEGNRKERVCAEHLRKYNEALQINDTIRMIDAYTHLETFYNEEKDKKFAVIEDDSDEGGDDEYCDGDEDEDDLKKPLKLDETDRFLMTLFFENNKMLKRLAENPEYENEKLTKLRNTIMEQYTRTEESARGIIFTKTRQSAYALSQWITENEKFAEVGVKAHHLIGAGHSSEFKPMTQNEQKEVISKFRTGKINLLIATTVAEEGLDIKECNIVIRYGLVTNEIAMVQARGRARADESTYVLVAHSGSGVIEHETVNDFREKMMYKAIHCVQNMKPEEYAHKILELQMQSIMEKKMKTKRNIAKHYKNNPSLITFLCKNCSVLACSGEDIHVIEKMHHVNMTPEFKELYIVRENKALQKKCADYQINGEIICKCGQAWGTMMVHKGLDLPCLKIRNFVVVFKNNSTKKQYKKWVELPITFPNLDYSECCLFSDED
In words: native gel or EMSA.

B1: GST-LGP2^Hel2i2 (domain or fragment, human, UniProt Q96C10 211-487, looked up)
chain: SQQPCKQYNLCHRRSQDPFGDLLKKLMDQIHDHLEMPELSRKFGTQMYEQQVVKLSEAAALAGLQEQRVYALHLRRYNDALLIHDTVRAVDALAALQDFYHREHVTKTQILCAERRLLALFDDRKNELAHLATHGPENPKLEMLEKILQRQFSSSNSPRGIIFTRTRQSAHSLLLWLQQQQGLQTVDIRAQLLIGAGNSSQSTHMTQRDQQEVIQKFQDGTLNLLVATSVAEEGLDIPHCNVVVRYGLLTNEISMVQARGRARADQSVYAFVATEGS
As for B1, in the data set with TRIM14^CC-PSpry, the binding result is on record as “binds”.

B2: TRIM65 CC-PSpry, fluorescein-labelled (domain or fragment, human, UniProt Q6PJ69 125-517, looked up)
chain: HERALLDAERLKREAQLRASLEVTQQQATQAEGQLLELRKQSSQIQNSACILASWVSGKFSSLLQALEIQHTTALRSIEVAKTQALAQARDEEQRLRVHLEAVARHGCRIRELLEQVDEQTFLQESQLLQPPGPLGPLTPLQWDEDQQLGDLKQLLSRLCGLLLEEGSHPGAPAKPVDLAPVEAPGPLAPVPSTVCPLRRKLWQNYRNLTFDPVSANRHFYLSRQDQQVKHCRQSRGPGGPGSFELWQVQCAQSFQAGHHYWEVRASDHSVTLGVSYPQLPRCRLGPHTDNIGRGPCSWGLCVQEDSLQAWHNGEAQRLPGVSGRLLGMDLDLASGCLTFYSLEPQTQPLYTFHALFNQPLTPVFWLLEGRTLTLCHQPGAVFPLGPQEEVLS
modifications: fluorescein-conjugated peptide (LPETGG) joined to the N-terminus with sortase A
Consider B2, for which, in the data set with GST-MDA5ΔN, the binding result is “binds”.

B3: TRIM65 CC-PSpry (domain or fragment, human, UniProt Q6PJ69 125-517, looked up)
chain: HERALLDAERLKREAQLRASLEVTQQQATQAEGQLLELRKQSSQIQNSACILASWVSGKFSSLLQALEIQHTTALRSIEVAKTQALAQARDEEQRLRVHLEAVARHGCRIRELLEQVDEQTFLQESQLLQPPGPLGPLTPLQWDEDQQLGDLKQLLSRLCGLLLEEGSHPGAPAKPVDLAPVEAPGPLAPVPSTVCPLRRKLWQNYRNLTFDPVSANRHFYLSRQDQQVKHCRQSRGPGGPGSFELWQVQCAQSFQAGHHYWEVRASDHSVTLGVSYPQLPRCRLGPHTDNIGRGPCSWGLCVQEDSLQAWHNGEAQRLPGVSGRLLGMDLDLASGCLTFYSLEPQTQPLYTFHALFNQPLTPVFWLLEGRTLTLCHQPGAVFPLGPQEEVLS
Consider B3, for which, in “SEC-MALS”, the “stoichiometry N” value came to 2. In the data set with MDA5ΔN, this molecule returned a Kd of 171 nM.

The term stoichiometry N denotes a count of units in the complex or per binding partner. For orientation: Kd means a measure of binding affinity in units of concentration.
